“And” between values parts separate entries of the source, which are not always exact repeats. Equal values may be shown once.
Columns and labels:
Nrp1 cytoplasmic domain [1] = target: T1, Nrp1 cytoplasmic domain (UniProt P97333 880-923); test: ITC
Nrp1 cytoplasmic domain [2] = target: T1, Nrp1 cytoplasmic domain; test: SPR

T1 sequence (P97333 880-923): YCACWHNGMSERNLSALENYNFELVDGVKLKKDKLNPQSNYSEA

Kd (Nrp1 cytoplasmic domain [1]): 12.1 µM and 12.9 µM
Kd (Nrp1 cytoplasmic domain [2]): 9.6 ± 1.2 µM
B1: FlnA repeats 23-24 (domain or fragment)
chain: GHGGDPGLVSAYGAGLEGGVTGNPAEFVVNTSNAGAGALSVTIDGPSKVKMDCQECPEGYRVTYTPMAPGSYLISIKYGGPYHIGGSPFKAKVTGPRLVSNHSLHETSSVFVDSLTKATCAPQHGAPGPGPADASKVVAKGLGLSKAYVGQKSSFTVDCSKAGNNMLLVGVHGPRTPCEEILVKHVGSRLYSVSYLLKDKGEYTLVVKWGDEHIPGSPYRVVVP

Source: paper PMC3856898 (FEBS letters, 2013)
